Data set [1] deals with T1, Cys32 (UniProt position 33, FWAEWCGPCKM). The data set is described as follows: fluorescence. Conditions: not stated (no added NaCl mentioned); 15 mM acetic acid, 15 mM MES, 30 mM Tris, 100 μM dtpa, 2 mM DTT; reduced (dithiol) thioredoxin in the presence of 2 mM DTT; folded.
The target of a further data set is Cys35 (UniProt position 36, EWCGPCKMIAP). Put plainly: chemical modification. The note with it: 120 mM NaCl plus buffer components, 30 mM ACES, 15.6 mM ethanolamine, 15.6 mM TRIS, 0.1 mM DTPA, reduced (dithiol) thioredoxin, DTT removed by gel filtration, folded. (In general: In gel filtration, larger molecules generally elute earlier.)
Data set [2] addresses T1, Cys32. Put plainly: chemical modification. Conditions: 120 mM NaCl plus buffer components, 30 mM ACES, 15.6 mM ethanolamine, 15.6 mM TRIS, 0.1 mM DTPA, reduced (dithiol) thioredoxin, DTT removed by gel filtration, folded.

“And” between values parts separate entries of the source, which are not always exact repeats. Identical values can stand only once.

With “Thioredoxin 1 (EcTRX) E101G (Escherichia coli; E101G)”, the pKa (as a rule, the pH at which an ionisable group is half protonated) was 7.1 ± 0.1 and 7.10 ± 0.04 in the data set with Cys32 [1]; 9.0 ± 0.2 with Cys35; 6.80 ± 0.20 in the data set with Cys32 [2].

For the substance “Thioredoxin 1 (EcTRX), wild type (Escherichia coli)”, the pKa was 7.5 ± 0.2 and 7.23 ± 0.06 with Cys32 [1]; 9.3 ± 0.3 in the data set with Cys35; 7.3 ± 0.3 with Cys32 [2].

For “Thioredoxin 1 (EcTRX) L94A (Escherichia coli; L94A)”, the results for the pKa with Cys35 and with Cys32 [2] were 8.8 ± 0.1 and 6.9 ± 0.1, respectively.

With “Thioredoxin 1 (EcTRX) L107A (Escherichia coli; L107A)”, in the data set with Cys32 [2], the pKa was determined as 7.3 ± 0.1.

Regarding “Thioredoxin 1 (EcTRX) N106A (Escherichia coli; N106A)”, the pKa in the data set with Cys35 worked out at 8.9 ± 0.1; with Cys32 [2], 6.5 ± 0.1.

Source of the values: publication PMC5299410.
